Legend:
[1] = molecular target: bovine serum albumin (BSA) (Roth, Karlsruhe, Germany) (UniProt P02769)
[2] = system: bovine casein (Hammersten-grade) (Merck, Darmstadt, Germany)
[3] = system: cyanophycin (multi-L-arginyl-poly-[L-aspartic acid]), Cyanophycin Granule Polypeptide

bovine serum albumin (BSA) (Roth, Karlsruhe, Germany), sequence (P02769 25-607): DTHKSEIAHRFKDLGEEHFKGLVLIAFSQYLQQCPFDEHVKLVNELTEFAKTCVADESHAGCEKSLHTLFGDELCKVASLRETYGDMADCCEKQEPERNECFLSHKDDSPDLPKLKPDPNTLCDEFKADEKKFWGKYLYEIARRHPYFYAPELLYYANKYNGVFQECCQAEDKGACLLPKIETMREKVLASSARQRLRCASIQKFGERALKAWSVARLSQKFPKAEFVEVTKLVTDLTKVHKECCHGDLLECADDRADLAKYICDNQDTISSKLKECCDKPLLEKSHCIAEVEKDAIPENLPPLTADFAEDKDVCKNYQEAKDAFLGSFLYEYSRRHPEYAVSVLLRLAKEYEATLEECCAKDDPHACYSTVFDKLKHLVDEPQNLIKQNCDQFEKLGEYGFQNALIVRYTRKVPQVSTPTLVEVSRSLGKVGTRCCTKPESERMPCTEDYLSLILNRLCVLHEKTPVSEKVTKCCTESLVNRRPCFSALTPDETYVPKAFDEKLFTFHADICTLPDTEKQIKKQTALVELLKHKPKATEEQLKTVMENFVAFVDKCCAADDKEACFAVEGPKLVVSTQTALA

extracellular cyanophycinase (CGPase) CphEal from Pseudomonas alcaligenes strain DIP1
degradation (in comparison to CGP) [1]: also BSA was partially degraded (65% in comparison to CGP) | degradation (substrate specificity test) [2]: Bovine casein and poly(aspartic acid) were minimally affected by the enzymatic activity of the purified CphEal | degradation activity (substrate specificity test) [3]: showed the highest degradation activity on CGP
